T1: peptide TYSSPEDGIHELAP
T1 construct: Alanine-scan peptide on a PEPSCAN card; also called replaced amino acid F
T1 peptide: TYSSPEDGIHELAP

T2: peptide TYSSPEDAIHELFP
T2 construct: Alanine-scan peptide on a PEPSCAN card; also called replaced amino acid G
T2 peptide: TYSSPEDAIHELFP

T3: peptide TYSSPEDGAHELFP
T3 construct: Alanine-scan peptide on a PEPSCAN card; also called replaced amino acid I
T3 peptide: TYSSPEDGAHELFP

T4: peptide TYSSPEDGIHEAFP
T4 construct: Alanine-scan peptide on a PEPSCAN card; also called replaced amino acid L
T4 peptide: TYSSPEDGIHEAFP

B1: antibody 17G8.72 (antibody, V domains shown)
VH: DVQLQESGPDLVKPSQSLSLTCTVTGYSIASGYSWHWIRQFPGNKLEWMGYIHFSGSANYNPSLKSRISITRDTSKNQFFLQLNSVTTEDTATYYCASEARGYFDYWGQGTTLTVSS
VL: DVLMTQTPLSLPVSLGDQASISCRSSQSIVRSNGNTYLTWYLQKPGQSPKLLIYKVSNRFSGVPDRFSGSGSGTDFTLKISRVEAEDLGVYFCFQGSHVPPTFGSGTKLEIKR
B2: antibody 29E7.35 (antibody, V domains shown)
VH: AVQLQESGPDLVKPSHSLSLTCTVTGYSITSGYSWHWIRQFPGNKLEWMGYIHYSGSANYNPSLKSRFSITRDTSKNQFFLQLNSVTTEDTATYYCATEKTGFFDYWGQGTTLTVSS
VL: DVVMTQTPLSLPVSLGDQASISCRSSQSLVHSNGNTYLHWYLQKPGQSPKLLIYKVSNRFSGVPDRFSGSGSGTDFTLKISRVEAEDLGVYFCSQSAHVPPTFGGGTKLEIKR
B3: antibody 27A12.70 (antibody, V domains shown)
VH: DVQLQESGPDLVKPSQSLSLTCTVTGYSITSGYSWHWIRQFPGNKLEWMGYIHYSGIANYNPSLKSRISITRDTSKNHFFLQLNSVTTEDTATYYCATEKTGFFDYWGQGTTLTVSS
VL: DVVMTQTPLSLPVSLGDQASISCRSSQSLVHSNGNTYLHWYLQKPGQSPKLLIYKVSNRFSGVPDRFSGSGSGTDFTLKISRVEAEDLGVYFCSQSAHVPPTFGGGTKLEIKR

What was measured:
Experiment in all cases: PEPSCAN ELISA, peptide on card, alanine scan
[1] = target: T1, peptide TYSSPEDGIHELAP
[2] = target: T2, peptide TYSSPEDAIHELFP
[3] = target: T3, peptide TYSSPEDGAHELFP
[4] = target: T4, peptide TYSSPEDGIHEAFP

Binder | Antibody binding (arbitrary optical density units) [1] | Antibody binding (arbitrary optical density units) [2] | Antibody binding (arbitrary optical density units) [3] | Antibody binding (arbitrary optical density units) [4]
B1 | 106 arbitrary optical density units | 89 arbitrary optical density units | 66 arbitrary optical density units | 
B2 | 124 arbitrary optical density units | 81 arbitrary optical density units | 74 arbitrary optical density units | 194 arbitrary optical density units
B3 | 249 arbitrary optical density units | 122 arbitrary optical density units | 91 arbitrary optical density units | 
